Article PMC9396398, “Crystal structure of Ankyrin-G in complex with a fragment of Neurofascin reveals binding mechanisms required for integrity of the axon initial segment” (The Journal of Biological Chemistry, 2022)

T1: AnkG ANK repeats (residues 38-855, R1-24) (UniProt O70511 38-855)
T1 chain: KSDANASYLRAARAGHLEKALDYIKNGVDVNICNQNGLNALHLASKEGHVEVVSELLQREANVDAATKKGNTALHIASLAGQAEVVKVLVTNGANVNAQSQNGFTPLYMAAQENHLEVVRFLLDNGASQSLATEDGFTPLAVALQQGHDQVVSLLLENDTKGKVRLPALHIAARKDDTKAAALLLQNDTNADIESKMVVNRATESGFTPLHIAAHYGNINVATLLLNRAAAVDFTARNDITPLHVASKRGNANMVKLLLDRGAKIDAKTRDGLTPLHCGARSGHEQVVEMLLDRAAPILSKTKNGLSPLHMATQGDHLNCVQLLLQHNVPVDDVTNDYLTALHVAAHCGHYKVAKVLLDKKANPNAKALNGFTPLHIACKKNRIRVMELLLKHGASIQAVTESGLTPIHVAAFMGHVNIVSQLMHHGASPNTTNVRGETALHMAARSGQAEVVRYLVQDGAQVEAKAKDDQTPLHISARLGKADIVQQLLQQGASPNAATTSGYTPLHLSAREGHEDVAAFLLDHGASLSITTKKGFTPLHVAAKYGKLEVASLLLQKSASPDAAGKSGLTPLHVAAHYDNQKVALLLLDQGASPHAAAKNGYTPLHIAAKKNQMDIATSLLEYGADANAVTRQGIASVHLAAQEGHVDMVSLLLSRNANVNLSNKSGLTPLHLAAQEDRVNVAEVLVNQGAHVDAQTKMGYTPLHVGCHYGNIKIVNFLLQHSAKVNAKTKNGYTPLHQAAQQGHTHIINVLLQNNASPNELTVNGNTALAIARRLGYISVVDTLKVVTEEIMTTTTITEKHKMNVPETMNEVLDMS

T2: AnkG ANK repeats (residues 38-855, R1-24) (UniProt O70511 38-855)
T2 construct: Ankyrin-G (AnkG), ANK repeats R1-24, residues 38-855; In human Q12955 the same residues seem to stand 8 lower (I277 here = I269 there); Cloned into a modified pET32a vector; the tag is said to be removed only for the crystallisation proteins; also called AnkG R1-24; Ankyrin-G ankyrin repeats; source: E. coli BL21 (DE3), purified (Ni-NTA, size-exclusion chromatography)
T2 sequence (looked up): T1 chain

B1: NrCAM (domain or fragment)
chain: RRNKGGKYPVKEKEDAHADPEIQPMKEDDGTFGEYSDAEDHKPLKKGSRTPSDRTVKKEDSDDSLVDYGEGVNGQFNEDGSFIGQYSGKKEKEPAEGNESSEAPSPVNAMNSFV
B2: CHL1 (domain or fragment)
chain: IEIPSSVQQVPTIIKQSKVQVAFPFDEYFQIECEAKGNPEPTFSWTKDGNPFYFTDHRIIPSNNSGTFRIPNEGHISHFQGKYRCFASNKLGIAMSEEIEFIVPSVPKFPKEKIDPLEVEEGDPIVLPCNPPKGLPPLHIYWMNIELEHIEQDERVYMSQKGDLYFANVEEKDSRNDYCCFAAFPRLRTIVQKMPMKLTVNSSNSIKQRKPKLLLPPTESGSESSITILKGEILLLECFAEGLPTPQVDWNKIGGDLPKGRETKENYGKTLKIENVSYQDKGNYRCTASNFLGTATHDFHVIVEEPPRWTKKPQSAVYSTGSNGILLCEAEGEPQPTIKWRVNGSPVDNHPFAGDVVFPREISFTNLQPNHTAVYQCEASNVHGTILANANIDVVDVRPLIQTKDGENYATVVGYSAFLHCEFFASPEAVVSWQKVEEVKPLEGRRYHIYENGTLQINRTTEEDAGSYSCWVENAIGKTAVTANLDIRNATKLRVSPKNPRIPKLHMLELHCESKCDSHLKHSLKLSWSKDGEAFEINGTEDGRIIIDGANLTISNVTLEDQGIYCCSAHTALDSAADITQVTVLDVPDPPENLHLSERQNRSVRLTWEAGADHNSNISEYIVEFEGNKEEPGRWEELTRVQGKKTTVILPLAPFVRYQFRVIAVNEVGRSQPSQPSDHHETPPAAPDRNPQNIRVQASQPKEMIIKWEPLKSMEQNGPGLEYRVTWKPQGAPVEWEEETVTNHTLRVMTPAVYAPYDVKVQAINQLGSGPDPQSVTLYSGEDYPDTAPVIHGVDVINSTLVKVTWSTVPKDRVHGRLKGYQINWWKTKSLLDGRTHPKEVNILRFSGQRNSGMVPSLDAFSEFHLTVLAYNSKGAGPESEPYIFQTPEGVPEQPTFLKVIKVDKDTATLSWGLPKKLNGNLTGYLLQYQIINDTYEIGELNDINITTPSKPSWHLSNLNATTKYKFYLRACTSQGCGKPITEESSTLGEGSKGIGKISGVNLTQKTHPIEVFEPGAEHIVRLMTKNWGDNDSIFQDVIETRGREYAGLYDDISTQGWFIGLMCAIALLTLLLLTVCFVKRNRGGKYSVKEKEDLHPDPEIQSVKDETFGEYSDSDEKPLKGSLRSLNRDMQPTESADSLVEYGEGDHGLFSEDGSFIGAYAGSKEKGSVESNGSSTATFPLRA
B3: full-length Nfasc cytoplasmic tail (residues 1132-1240) (domain or fragment)
chain: KRSRGGKYPVREKKDVPLGPEDPKEEDGSFDYSDEDNKPLQGSQTSLDGTIKQQESDDSLVDYGEGGEGQFNEDGSFIGQYTVRKDKEETEGNESSEATSPVNAIYSLA
B4: Nfasc 1198 to 1214 E1204A (domain or fragment, UniProt P97685 1198-1214, looked up)
chain: GEGQFNADGSFIGQYTV
notes: source: E. coli BL21 (DE3), purified (Ni-NTA, size-exclusion chromatography)
B5: Nfasc 1198 to 1214 Y1212E (domain or fragment, UniProt P97685 1198-1214, looked up)
chain: GEGQFNEDGSFIGQETV
notes: also called Y1212E phosphorylation mimic variant; source: E. coli BL21 (DE3), purified (Ni-NTA, size-exclusion chromatography)
B6: Nfasc 1198 to 1214 F1202Q (domain or fragment, UniProt P97685 1198-1214, looked up)
chain: GEGQQNEDGSFIGQYTV
notes: as for B4

Biological target: T1, AnkG ANK repeats (residues 38-855, …)
Test: ITC
Conditions: not given

Row | Kd | Binder
1 | 1100 nM | SDDSLADYGGSVDVQFNEDGSFIGQYSG (domain or fragment) [L1CAM (construct of the ITC assay)]
2 | 700 nM | B1
3 | 900 nM | B2

Biological target: T1, AnkG ANK repeats (residues 38-855, …)
Test: ITC
Conditions: not given
Remark: another data set of the same source

Row | Kd | Binder
4 | 340 nM | GEGQFNEDGSFIGQYTV (domain or fragment) [Nfasc 1198 to 1214 WT]
5 | 930 nM | B3

Biological target: T1, AnkG ANK repeats (residues 38-855, …)
Test: ITC
Conditions: not given
Remark: another data set of the same source

Row | Kd | Binder
6 | 1200 nM | GEGQFNEDGAFIGQYTV [Nfasc 1198-1214 S1207A]
7 | 9200 nM | B4
8 | 3200 nM | B5
9 | 7100 nM | B6
10 | 7700 nM | GEGQFNEKGSFIGQYTV (domain or fragment) [Nfasc 1198 to 1214 D1205K]
11 | 460 nM | GEGQFNEDGSFIGQYAV [Nfasc 1198-1214 T1213A]
12 | 260 nM | GEGQFAEDGSFIGQYTV [Nfasc 1198-1214 N1203A]
13 | 1000 nM | GEGQFNEDGSFQGQYTV (domain or fragment) [Nfasc 1198 to 1214 I1209Q]
14 | 1400 nM | GEGQFNEDGSQIGQYTV (domain or fragment) [Nfasc 1198 to 1214 F1208Q]
15 | 1300 nM | GEGQFNEAGSFIGQYTV (domain or fragment) [Nfasc 1198 to 1214 D1205A]

Each binder was assayed against T2, AnkG ANK repeats (residues 38-855, …) (assay: ITC; VP-ITC at 25 °C; 50 mM Tris, 100 mM NaCl, 1 mM EDTA, 1 mM DTT, pH 7.8; Nfasc proteins (200 μM) in the syringe, AnkG proteins (20 μM) in the cell; one-site binding model). Conditions: both partners purified.

Row | fold decrease in binding affinity against Nfasc 1198 to 1214 WT | fold decrease in binding against Nfasc 1198 to 1214 WT | Binder
16 | ~27 fold | – | B4
17 | – | ~9 fold | B5
18 | – | > 20 fold | B6
